Test results: article PMC2908316 (2009)
Values belong to the binder of their own block, whether it stands above or below them.

Target: Gαo (Homo sapiens, UniProt P09471)
Assay: flow cytometry protein interaction assay

Sequence of Gαo (P09471 2-354): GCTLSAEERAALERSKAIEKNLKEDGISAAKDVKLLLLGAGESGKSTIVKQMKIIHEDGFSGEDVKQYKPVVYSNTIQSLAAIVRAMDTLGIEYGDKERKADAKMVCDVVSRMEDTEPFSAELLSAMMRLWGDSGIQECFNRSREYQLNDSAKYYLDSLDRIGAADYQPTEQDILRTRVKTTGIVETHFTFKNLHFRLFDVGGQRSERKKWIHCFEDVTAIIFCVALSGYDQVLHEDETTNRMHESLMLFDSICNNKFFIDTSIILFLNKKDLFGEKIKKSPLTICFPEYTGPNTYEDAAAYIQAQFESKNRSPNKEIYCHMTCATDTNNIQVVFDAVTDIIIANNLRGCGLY

Kd: < 100 nM
B1: RGS16 (protein)
chain: MCRTLAAFPTTCLERAKEFKTRLGIFLHKSELGCDTGSTGKFEWGSKHSKENRNFSEDVLGWRESFDLLLSSKNGVAAFHAFLKTEFSEENLEFWLACEEFKKIRSATKLASRAHQIFEEFICSEAPKEVNIDHETHELTRMNLQTATATCFDAAQGKTRTLMEKDSYPRFLKSPAYRDLAAQASAASATLSSCSLDEPSHT

Kd: < 100 nM
B2: RGS4 (protein)
chain: MCKGLAGLPASCLRSAKDMKHRLGFLLQKSDSCEHNSSHNKKDKVVICQRVSQEEVKKWAESLENLISHECGLAAFKAFLKSEYSEENIDFWISCEEYKKIKSPSKLSPKAKKIYNEFISVQATKEVNLDSCTREETSRNMLEPTITCFDEAQKKIFNLMEKDSYRRFLKSRFYLDLVNPSSCGAEKQKGAKSSADCASLVPQCA

Kd: < 100 nM
B3: RGS8 (protein)
chain: MAALLMPRRNKGMRTRLGCLSHKSDSCSDFTAILPDKPNRALKRLSTEEATRWADSFDVLLSHKYGVAAFRAFLKTEFSEENLEFWLACEEFKKTRSTAKLVSKAHRIFEEFVDVQAPREVNIDFQTREATRKNLQEPSLTCFDQAQGKVHSLMEKDSYPRFLRSKMYLDLLSQSQRRLS

Kd: < 100 nM
B4: RGS7 (protein)
chain: MAQGNNYGQTSNGVADESPNMLVYRKMEDVIARMQDEKNGIPIRTVKSFLSKIPSVFSGSDIVQWLIKNLTIEDPVEALHLGTLMAAHGYFFPISDHVLTLKDDGTFYRFQTPYFWPSNCWEPENTDYAVYLCKRTMQNKARLELADYEAESLARLQRAFARKWEFIFMQAEAQAKVDKKRDKIERKILDSQERAFWDVHRPVPGCVNTTEVDIKKSSRMRNPHKTRKSVYGLQNDIRSHSPTHTPTPETKPPTEDELQQQIKYWQIQLDRHRLKMSKVADSLLSYTEQYLEYDPFLLPPDPSNPWLSDDTTFWELEASKEPSQQRVKRWGFGMDEALKDPVGREQFLKFLESEFSSENLRFWLAVEDLKKRPIKEVPSRVQEIWQEFLAPGAPSAINLDSKSYDKTTQNVKEPGRYTFEDAQEHIYKLMKSDSYPRFIRSSAYQELLQAKKKSGNSMDRRTSFEKFAQNVGRNIPIFPCHKNCTPTLRASTNLL
